Article PMC5855643

Legend:
[1] = molecular target: FcγRIIIa receptor, V158 (high affinity) variant
[2] = molecular target: FcγRIIIa receptor, F158 (low affinity) variant (UniProt P08637)

EC50 of the ADCC reporter bioassay, Daudi target cells, V/V 158 variant effector cells [1] | EC50 of the ADCC reporter bioassay, Wil2-S target cells, V/V 158 variant effector cells [1] | EC50 of the ADCC reporter bioassay, Daudi target cells, F/F 158 variant effector cells [2] | EC50 of the ADCC reporter bioassay, Wil2-S target cells, F/F 158 variant effector cells [2] | Substance
12 ng/mL | 15.7 ng/mL | 22 ng/mL | 18 ng/mL | Rituxan^® (rituximab, innovator product) (antibody)
2.9 ng/mL | 2.7 ng/mL | 7 ng/mL | 4.4 ng/mL | reglycosylated plant-made rituximab (NbRTX^A2G2) (antibody)
